Reference: the Human Domainome abundance scans (Beltran et al. 2025)

B1: CD2-associated protein, residues 1 to 59; numbered along this chain, Q9Y5K6 (parent)
chain: MVDYIVEYDYDAVHDDELTIRVGEIIRNVKKLQEEGWLEGELNGRRGMFPDNFVKEIKR

Variants of: B1
Experiment: abundance fitness (aPCA) (normalised: wild type 0, dead -1); higher = more abundant; growth selection in yeast, the domain comes from the species named
Conditions: Homo sapiens

Abundance fitness: each site, then its substitutions
K31: F -0.728 | G -0.096 | H 0.036 | I 0.191 | L -0.214 | N -0.311 | P 0.089 | Q -0.07 | R -0.069 | S -0.13 | T 0.03 | V -0.092 | W -0.328 | Y -0.159
L32: A 0.118 | C 0.003 | D -0.223 | E -0.088 | F 0.016 | G -0.013 | H -0.001 | I -0.238 | K 0.01 | M -0.159 | N -0.078 | P -0.152 | S -0.011 | T -0.302 | V 0.074 | Y -0.206
Q33: A -0.071 | C -0.192 | D 0.065 | E -0.014 | F -0.182 | G 0.015 | H -0.119 | I -0.36 | K -0.07 | L -0.351 | M -0.238 | N 0.102 | R -0.084 | S 0.03 | T 0.006 | V -0.317 | W -0.474 | Y -0.242
E34: A -0.048 | C 0.094 | D -0.148 | G -0.034 | H 0.173 | I 0.074 | K 0.075 | L 0.004 | M 0.05 | N 0.009 | P -0.152 | Q -0.241 | R 0.018 | T -0.028 | V -0.006 | W -0.057 | Y -0.089
E35: A -0.067 | C -0.156 | D -0.032 | F -0.158 | G -0.071 | H -0.068 | I -0.062 | K 0.027 | L -0.205 | M -0.189 | N 0.054 | P 0.051 | Q -0.07 | R -0.016 | S -0.082 | T -0.177 | V -0.049 | W -0.399 | Y -0.215
G36: C -0.403 | D -0.551 | E -0.659 | F -0.622 | H -0.231 | I -0.632 | L -0.978 | M -0.433 | N -0.174 | P -0.143 | Q -0.467 | R -0.195 | S -0.352 | T -0.618 | V -0.745 | Y -0.614
W37: G -0.779 | I -0.451 | K -0.469 | L -0.273 | M -0.219 | Q -0.32 | R -0.298 | S -0.277 | T -0.359 | V -0.253 | Y -0.02
L38: A -0.25 | C -0.193 | D -0.721 | E -0.867 | F -0.105 | G -0.996 | H -0.662 | I -0.433 | K -0.264 | M 0.049 | N -0.558 | P -1.07 | R -0.563 | S 0.003 | T -0.548 | V -0.525 | Y -0.27
E39: A -0.146 | C 0 | D -0.541 | F -0.432 | H -0.202 | I -0.142 | K -0.302 | L -0.427 | M -0.256 | N -0.446 | Q -0.248 | R -0.486 | S -0.057 | T -0.26 | V -0.201 | Y -0.164
G40: A -0.999 | D -0.825 | E -0.926 | K -0.541 | L -0.945 | M -0.661 | R -0.858 | S -0.463 | V -0.904
E41: A -0.388 | D -0.349 | I -0.191 | M -0.312 | N -0.361 | Q -0.352 | R -0.306 | S -0.013 | V -0.535 | W -0.31 | Y -0.532
L42: A -0.327 | C -0.012 | F -0.212
